From patent US20110190477A1 (G2 INFLAMMATION, published 2011)
No end group written: not given here. *: point of attachment. Biotin = O=C1N[C@H]2[C@H](CS[C@H]2CCCCC(=O)*)N1

Assays:
Test in all cases: peptide ELISA, biotin peptide on streptavidin plate
[1] = biological target: T1, peptide 14 (12 mer from the 2nd extracellular loop of human C5aR) (human)
T1 construct: worked out from 22 12 mers offset by one over 173-205; also called peptide no; 14
T1 peptide: Biotin-SGSGVLCGVDYSHDKR
Excerpt: (§1) A set of 22 overlapping peptides (12 mers), each offset by 1 residue from the next, spanning the second extracellular loop (3rd extracellular domain) of human C5aR was synthesised (Mimotopes, Melbourne). Each peptide was made with a biotin group and 4-amino acid linker (SGSG) at its N-terminus. One peptide synthesised, no. 23, was a 33 mer, representing the full length of the 2nd extracellular loop of hC5aR (residues 173-205 from SEQ ID NO:37), also had biotin-SGSG at the N-terminus.
(§2) The experiment was conducted by binding the peptides to a 384-well streptavidin-coated plate then incubating the antibodies with the peptides and detecting bound antibody with an anti-mouse IgG conjugated to horse radish peroxidase (HRP) as follows. Each peptide was dissolved in 200 μl of 60% DMSO to a concentration of 10 mg/ml. Peptides were further diluted 1:1000 to a working strength of 10 μg/ml with PBS/Tween 20/azide solution (0.1% w/v sodium azide in PBS/0.05% Tween 20).
(§3) A 384 well streptavidin-coated plate (Nunc) was blocked with 20 μl of blocking buffer (1% w/v BSA in PBS) per well. The plate was washed 4 times with PBS/Tween20 buffer (0.1% v/v Tween 20 in PBS). 20 μl of diluted peptide solution was transferred into a well and the plate incubated for 1 hour at room temperature. After washing the plate 4 times (as above) 20 μl antibody (0.5, 1, 1.25, 2.5 or 5 μg/ml) was added to the well and the plate was incubated for 1 hour at 20° C. The plate was washed 4 times as above then 20 μlHRP-conjugated anti-mouse IgG (1:5000 dilution in PBS/Tween 20) was added to each well. After a 1 hour incubation at room temperature the plate was washed 3 times (as above) then twice with PBS to remove traces of Tween. The presence of peroxidase was detected by adding 20 μl of freshly prepared TMB Substrate reagent (BD Opt EIA) to each well and incubating at room temperature for 20 min. Finally the plate was read at 650 nm/450 nm.

[2] = biological target: T2, peptide 17 (12 mer from the 2nd extracellular loop of human C5aR) (human)
T2 construct: worked out from 22 12 mers offset by one over 173-205; also called peptide no; 17
T2 peptide: Biotin-SGSGGVDYSHDKRRER
Excerpt: as §1, §2, §3

[3] = biological target: T3, peptide 22 (12 mer from the 2nd extracellular loop of human C5aR) (human)
T3 construct: worked out from 22 12 mers offset by one over 173-205; also called peptide no; 22
T3 peptide: Biotin-SGSGHDKRRERAVAIV
Excerpt: as §1, §2, §3

[4] = biological target: T4, peptide 19 (12 mer from the 2nd extracellular loop of human C5aR) (human)
T4 construct: worked out from 22 12 mers offset by one over 173-205; also called peptide no; 19
T4 peptide: Biotin-SGSGDYSHDKRRERAV
Excerpt: as §1, §2, §3

[5] = biological target: T5, peptide 12 (12 mer from the 2nd extracellular loop of human C5aR) (human)
T5 construct: worked out from 22 12 mers offset by one over 173-205; also called peptide no; 12
T5 peptide: Biotin-SGSGPKVLCGVDYSHD
Excerpt: as §1, §2, §3

[6] = biological target: T6, peptide 20 (12 mer from the 2nd extracellular loop of human C5aR) (human)
T6 construct: worked out from 22 12 mers offset by one over 173-205; also called peptide no; 20
T6 peptide: Biotin-SGSGYSHDKRRERAVA
Excerpt: as §1, §2, §3

[7] = biological target: T7, peptide 9 (12 mer from the 2nd extracellular loop of human C5aR) (human)
T7 construct: worked out from 22 12 mers offset by one over 173-205; also called peptide no
T7 peptide: Biotin-SGSGYFPPKVLCGVDY
Excerpt: as §1, §2, §3

[8] = biological target: T8, peptide 13 (12 mer from the 2nd extracellular loop of human C5aR) (human)
T8 construct: worked out from 22 12 mers offset by one over 173-205; also called peptide no; 13
T8 peptide: Biotin-SGSGKVLCGVDYSHDK
Excerpt: as §1, §2, §3

Measured: binding result

B1: humanized anti-C5aR antibody hAb-J (antibody, human IgG4 S228P, kappa)
light: DVVMTQSPLSLPVTLGEPASISCRSSQSLVHSNGNTYLHWYLQKPGQSPQLLIYKVSNRFSGVPDRFSGSGSGTDFTLKISRVEAEDVGVYFCSQSTLVPLTFGQGTKLEIKTVAAPSVFIFPPSDEQLKSGTASVVCLLNNFYPREAKVQWKVDNALQSGNSQESVTEQDSKDSTYSLSSTLTLSKADYEKHKVYACEVTHQGLSSPVTKSFNRGEC
heavy: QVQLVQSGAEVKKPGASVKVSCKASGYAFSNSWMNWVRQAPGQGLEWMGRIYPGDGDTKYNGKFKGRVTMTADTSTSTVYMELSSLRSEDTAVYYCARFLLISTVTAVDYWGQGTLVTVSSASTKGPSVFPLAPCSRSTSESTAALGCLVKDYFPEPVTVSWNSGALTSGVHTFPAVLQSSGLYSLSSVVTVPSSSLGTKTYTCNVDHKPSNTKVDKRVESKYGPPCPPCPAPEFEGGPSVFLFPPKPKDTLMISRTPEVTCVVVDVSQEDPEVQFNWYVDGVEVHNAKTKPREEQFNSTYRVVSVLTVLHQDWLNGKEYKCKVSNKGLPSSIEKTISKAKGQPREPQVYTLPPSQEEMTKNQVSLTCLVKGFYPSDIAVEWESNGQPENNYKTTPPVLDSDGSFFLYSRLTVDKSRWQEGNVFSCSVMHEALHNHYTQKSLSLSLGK
notes: also called antibody J
no binding: [1] | [2] | [3] | [4] | [5] | [6] | [7] | [8]

B2: mouse anti-C5aR monoclonal antibody 7F3 (antibody, V domains shown)
VH: QVQLQQSGPELVKPGASVKISCKASGYAFSNSWMNWVKQRPGKGLEWIGRIYPGDGDTKYNGKFKGKATLTADKSSSTAYMQLSSLTSEDSAVYFCARFLLISTVTAVDYWGQGTTLTVSS
VL: DVVMTQSPLSLPVSLGNQASISCRSSQSLVHSNGNTYLHWYLQKPGQSPKLLIYKVSNRFSGVPDRFSGSGSGTDFSLKISRVEAEDLGVYFCSQSTLVPLTFGAGTKLELK
notes: Mouse monoclonal from hybridoma ECACC 00110609; also called m7F3; mouse 7F3
no binding: [1] | [2] | [3] | [4] | [5] | [6] | [7] | [8]

B3: humanized anti-C5aR antibody hAb-Q (antibody, human IgG4 S228P, kappa)
light: DVVMTQSPLSLPVTLGEPASISCRSSQSLVHSNGNTYLHWYLQKPGQSPQLLIYKVSNRFSGVPDRFSGSGSGTDFTLKISRVEAEDVGVYFCSQSTLVPLTFGQGTKLEIKRTVAAPSVFIFPPSDEQLKSGTASVVCLLNNFYPREAKVQWKVDNALQSGNSQESVTEQDSKDSTYSLSSTLTLSKADYEKHKVYACEVTHQGLSSPVTKSFNRGEC
heavy: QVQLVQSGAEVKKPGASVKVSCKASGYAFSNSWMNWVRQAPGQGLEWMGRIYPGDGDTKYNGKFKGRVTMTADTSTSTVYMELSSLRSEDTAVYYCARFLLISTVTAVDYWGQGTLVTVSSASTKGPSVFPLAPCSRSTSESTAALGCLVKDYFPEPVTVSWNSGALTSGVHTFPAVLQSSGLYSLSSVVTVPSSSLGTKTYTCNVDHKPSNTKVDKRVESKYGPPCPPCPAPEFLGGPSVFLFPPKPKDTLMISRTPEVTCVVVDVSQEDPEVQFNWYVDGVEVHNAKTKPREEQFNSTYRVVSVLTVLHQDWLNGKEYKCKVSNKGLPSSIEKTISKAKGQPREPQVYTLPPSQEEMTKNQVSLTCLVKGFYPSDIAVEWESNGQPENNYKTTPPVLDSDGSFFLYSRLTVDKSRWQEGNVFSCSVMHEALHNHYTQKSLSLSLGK
notes: IgG4 with the Ser228Pro mutation; also called antibody Q; anti-C5aR ab
no binding: [1] | [2] | [3] | [4] | [5] | [6] | [7] | [8]
